Reference: the supplement of paper PMC9732359
± gives the uncertainty stated by the source.

Assay: protein stability index of a GFP-peptide fusion (yeast GPS) (PSI 1-4); higher = more stable; sorted into four equal gates, so the index is relative within each strain
Outline: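 The protein stability index of a peptide was calculated by multiplying its read frequency in each gate by that gate's number and adding the products. The peptides were tiled 17-residue stretches of yeast proteins, fused downstream of GFP on a Cherry-expressing plasmid and carried in yeast as a pooled library. Mid-log cultures in leucine-free medium were sorted into four equal gates by GFP/Cherry ratio, and each gate's plasmids were PCR-amplified and Illumina-sequenced.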

| Sequence | protein stability index (doa10∆) | protein stability index (pdr5∆) | protein stability index (san1∆) | protein stability index (ubr1∆) |
| --- | --- | --- | --- | --- |
| KIEFPLPSEDSRAQILQ [RPT5] | 3.39 ± 0.15 | 3.18 ± 0.13 | 3.11 ± 0.09 | 3.51 ± 0.11 |
| RASKLKIQASDVNIIGK [RPO31] | – | 3.04 ± 0.17 | 2.7 ± 0.24 | – |
| PIGRHEELLAQYESQAP [SWP82] | 2.35 ± 0.057 | 2.25 ± 0.063 | 2.07 ± 0.1 | 2.07 ± 0.037 |
| TFGTKHAADSQNNKPSF [YLR335W/NUP2] | 3.16 ± 0.22 | – | 3.18 ± 0.17 | 3.05 ± 0.2 |
| VPTSIQTKRWPTMYTRL [SIN4] | 2.18 ± 0.048 | 2.57 ± 0.05 | 2.5 ± 0.047 | 2.62 ± 0.039 |
| FKDRFKDEPVQNDILQE [FAS2] | 3.35 ± 0.13 | 3.03 ± 0.15 | 3.23 ± 0.072 | 3.46 ± 0.092 |
| LISGAGANPRVLSTFTA [RPN10] | 2.16 ± 0.11 | 2.04 ± 0.1 | 2.02 ± 0.2 | 2.17 ± 0.072 |
| QIRDVMERFSVLCNSNI [RRP6] | 2.41 ± 0.11 | 2.82 ± 0.11 | 2.18 ± 0.15 | 2.38 ± 0.084 |
| ENNTDSARKELEQKIHE [SMC1] | 2.33 ± 0.1 | 2 ± 0.094 | 2.79 ± 0.086 | 3.01 ± 0.1 |
| NSNSNQQSTDADEDDED [RPT1] | 2.32 ± 0.095 | 2.34 ± 0.093 | 2.46 ± 0.091 | 2.37 ± 0.061 |
| ESDNYRLLPNGSNKAQI [YML031W/NDC1] | 3.08 ± 0.061 | 3.18 ± 0.067 | 2.78 ± 0.047 | 2.95 ± 0.035 |
| VGFLVQLDLTGIFLHGK [PRP8] | 2.17 ± 0.074 | 1.85 ± 0.05 | 2.33 ± 0.058 | 2.39 ± 0.067 |
| SNSNNNGNKDSSFNFNK [SWI1] | 3.04 ± 0.053 | 3.17 ± 0.043 | 3.13 ± 0.04 | 3.16 ± 0.04 |
| ELEKYNELERNRKIYQF [SMC3] | 2.34 ± 0.099 | 2.35 ± 0.13 | 2.38 ± 0.14 | 2.67 ± 0.078 |
| NRTMDGKPVSLPLLYNF [FAS1] | 3.08 ± 0.093 | 3.31 ± 0.1 | 2.7 ± 0.072 | 2.93 ± 0.073 |
| TRKAARPQKLRASLVPG [RPL6A] | 1.47 ± 0.21 | 1.5 ± 0.12 | – | 2 ± 0.12 |
| IAKIKKVCECVCMHCGK [RPO21] | 1.92 ± 0.057 | 2.28 ± 0.067 | 2.7 ± 0.091 | 2.43 ± 0.046 |
| VLKACGILSDLEIMQLV [RET1] | 1.56 ± 0.11 | – | 1.46 ± 0.22 | 2.56 ± 0.082 |
| VGSENVECTISILRKSS [SNF12] | 1.89 ± 0.042 | 2.23 ± 0.044 | 2.43 ± 0.044 | 2.11 ± 0.036 |
| AQGKEFGVTKARWPAKS [RPL17A] | 3.02 ± 0.13 | 3.49 ± 0.12 | 3.26 ± 0.066 | 3.35 ± 0.097 |
| VLISKLSCEKITHYAVR [RRI1] | 1.45 ± 0.046 | 1.64 ± 0.051 | 1.66 ± 0.07 | 1.67 ± 0.039 |
| FYAAVQKNYADPEKDSI [SIN4] | 2.11 ± 0.083 | 2.58 ± 0.074 | 2.01 ± 0.093 | 1.59 ± 0.046 |
| LHQYYGDDESKIPAVEY [FAS1] | – | 2.75 ± 0.21 | 2.96 ± 0.19 | – |
| PEDLNSLYIYYLIKLLG [SIR2] | 2.07 ± 0.053 | 2.15 ± 0.05 | 2.18 ± 0.064 | 1.95 ± 0.056 |
| GSIGSRKYSFNYSSLPS [YAR002W/NUP60] | 1.95 ± 0.059 | 2.39 ± 0.062 | 2.12 ± 0.081 | 1.65 ± 0.039 |
| NGVRALFHSCTRIQYVD [GRR1] | 2.08 ± 0.088 | 2.31 ± 0.055 | 1.86 ± 0.068 | 2.59 ± 0.051 |
| AGKFELLDRILPKLKAT [SNF2] | 1.18 ± 0.17 | 2.05 ± 0.14 | 1.77 ± 0.19 | 1.95 ± 0.17 |

| Sequence | protein stability index (doa10∆) | protein stability index (pdr5∆) | protein stability index (san1∆) | protein stability index (ubr1∆) |
| --- | --- | --- | --- | --- |
| SVPTNSADAPNPNNVNV [RET1] | 3.24 ± 0.084 | 3.14 ± 0.081 | 3.26 ± 0.049 | 3.23 ± 0.058 |
| KYHYKEEWLNTKDPDEQ [CSN9] | 2.86 ± 0.086 | 3.05 ± 0.099 | 3.05 ± 0.057 | 3.05 ± 0.093 |
| LAKIKEEEMAPYYKYLC [RPN7] | 1.28 ± 0.091 | 1.74 ± 0.25 | – | 1.37 ± 0.2 |
| APKWYPSEDVAALKKTR [RPL6A] | 2.5 ± 0.07 | 2.97 ± 0.063 | 2.75 ± 0.049 | 2.53 ± 0.051 |
| QQRIVSAYEASMVYSNV [RRP4] | 2.32 ± 0.062 | 2.62 ± 0.05 | 2.62 ± 0.045 | 2.33 ± 0.046 |
| ELQEKNVELLNCIRILA [YIL149C/MLP2] | 2.19 ± 0.054 | 1.95 ± 0.065 | 1.73 ± 0.085 | 1.68 ± 0.039 |
| VKSKIQDKEGIPPDQQR [RPS31] | 3.08 ± 0.076 | 3.48 ± 0.075 | 3.41 ± 0.051 | 3.44 ± 0.061 |
| HLEALQPLFSTVPEYLK [PGD1] | 1.51 ± 0.039 | 1.69 ± 0.045 | 1.66 ± 0.093 | 2.12 ± 0.066 |
| EGRLLDNVQANDPAREK [SNF12] | 2.8 ± 0.11 | 3.21 ± 0.065 | 2.96 ± 0.05 | 3.18 ± 0.042 |
| NRRKQSFVLNKNTIDFE [RPN4] | 2.86 ± 0.062 | 1.74 ± 0.045 | 2.1 ± 0.075 | 1.88 ± 0.044 |
| LQDLISVYGLDDISRQV [ROX3] | 2.69 ± 0.077 | 2.88 ± 0.086 | 2.84 ± 0.12 | 3.21 ± 0.051 |
| TTNMNVNNCIWALKSSL [RGR1] | 2.26 ± 0.068 | 1.32 ± 0.065 | 1.36 ± 0.21 | 1.25 ± 0.046 |
| LQHELMISIIKLVTNVV [YML103C/NUP188] | 1.54 ± 0.071 | 1.8 ± 0.048 | 1.56 ± 0.18 | 1.57 ± 0.038 |
| HIEGVVILKKNPDYREE [RPN1] | 2.89 ± 0.086 | 3.07 ± 0.096 | 3.05 ± 0.079 | 3.07 ± 0.066 |
| ETLVLDEADKMIDLGFE [PRP28] | 3.18 ± 0.094 | 3.22 ± 0.12 | 3.31 ± 0.088 | 3.08 ± 0.056 |
| FVIGVIIGTFSDSYKVS [RRP40] | 1.43 ± 0.057 | 1.41 ± 0.068 | 2.04 ± 0.12 | 2.23 ± 0.078 |
| MKLVPSIPPATIETFNE [RPB5] | 2.41 ± 0.053 | 2.41 ± 0.06 | 2.11 ± 0.051 | 2.57 ± 0.049 |
| QFSQLNDPNAAVNMTQN [MED6] | 2.71 ± 0.089 | 2.91 ± 0.1 | 2.86 ± 0.039 | 2.62 ± 0.06 |
| TGLNGSGKSNILDAICF [SMC2] | 3.4 ± 0.12 | 2.98 ± 0.093 | 3.28 ± 0.063 | 3.31 ± 0.054 |
| RRIIQNAQQTFHIDHTK [RPO21] | 2.81 ± 0.061 | 2.89 ± 0.061 | 3 ± 0.062 | 2.89 ± 0.066 |
| KDFIENVNNRFDNFLTE [BRN1] | 3.06 ± 0.086 | 3.04 ± 0.093 | 3.2 ± 0.068 | 2.88 ± 0.066 |
| SDAEEEEGEYKNAANTE [ISW2] | 3.06 ± 0.14 | 3.44 ± 0.14 | 3 ± 0.17 | 3.3 ± 0.093 |
| VTIASEIYYDPDPRSTV [RPO21] | 2.41 ± 0.14 | 2.86 ± 0.14 | – | 2.52 ± 0.11 |
| ETRRKTTTVLKRYANHT [RET1] | 2.14 ± 0.083 | 2.98 ± 0.084 | 3.09 ± 0.045 | 2.94 ± 0.05 |
| SWEEGTRQSSRNFDTHE [MCD1] | 3.26 ± 0.12 | 3.59 ± 0.13 | 3.31 ± 0.1 | 3.38 ± 0.15 |
| FLNSNAVVVGTGNIKHE [COR1] | 1.18 ± 0.085 | 1.36 ± 0.15 | 1.06 ± 0.22 | 1.24 ± 0.12 |
